This note sets out measurements from patent US20210371506A1 (JIANGSU HENGRUI MEDICINE, published 2021).

Assay [1] concerns the target T1, Aβ1-42 monomer (human).
T1 construct: Synthetic peptide: Sigma A9810 dissolved in DMSO for Biacore; GenScript RP10017 in NaOH/PBS for the ThT assay; also called human Aβ1-42
The experiment in a line: SPR, Biacore T200; IgG captured on Protein A chip, Aβ1-42 monomer flowed over. The procedure: (§1) The affinity of an antibody to Aβ1-42 monomer was detected by capturing antibody on the chip. IgG was affinity-captured onto Protein A biosensing chip, and then the antigen […] monomer was allowed to flow through the surface of the chip. The reaction signals were detected in real time with Biacore T200 instrument to generate a binding and dissociation curve. At the end of each experimental cycle, after the dissociation was completed, the biosensor chip was washed and regenerated with 10 mM Glycine-HCl (pH1.5).

Assay [2] deals with T2, Aβ1-42 fibrils (human).
T2 construct: Synthetic Aβ1-42 polypeptide (GL Biochem) made into fibrils in vitro (DMSO, diluted in water, 37 °C for 10 days); In the phagocytosis assays the fibrils were fluorescence (FITC) labeled; also called Aβ fibrils; Abeta fibrils
T2 sequence (peptide, as listed by the source): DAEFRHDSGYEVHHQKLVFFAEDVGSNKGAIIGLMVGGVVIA
Description: SPR, Biacore T200; Aβ1-42 fibrils amine-coupled to CM5 chip, antibody flowed over. The procedure: (§2) The affinity of an antibody to Aβ1-42 fibrils was detected by the method of amino coupling. Aβ1-42 fibrils was coupled to CM5 biosensing chip (200 RU), and then the antibody molecules were allowed to flow through the surface of the chip. The reaction signals were detected in real time with Biacore T200 instrument to generate a binding and dissociation curve. At the end of each experimental cycle, after the dissociation was completed, the biosensor chip was washed and regenerated with 10 mM Glycine-HCl (pH 1.5). The positive antibody, Aducanumab, was prepared according to the sequence information about Aducanumab released by WHO (see WHO Drug Information, Vol. 28, No. 3, 2014), and the preparation method was described in Example 4 of the present disclosure.

The target in assay [3] is T1, Aβ1-42 monomer. The experiment in a line: cell-based or functional assay.
Assay [4] addresses T2, Aβ1-42 fibrils. The experiment in a line: SPR, Biacore T200; Aβ1-42 fibrils on CM5 chip; reference Aducanumab. As to the method: as §2
The target of assay [5] is T1, Aβ1-42 monomer. The experiment in a line: SPR, Biacore T200; IgG on Protein A chip, Aβ1-42 monomer as analyte; reference Aducanumab. As to the method:
as §1

T1 sequence (peptide, as listed by the source): as above

B1: HAB-2401 (antibody, human IgG1, kappa, V domains shown)
VH: EVQLVQSGAEVKKPGASVKVSCKVSGYTLTNTYMHWVRQAPGKGLEWMGRIDPTNGNTKYAPKFKDRVTMTADTSTDTAYMELSSLRSEDTAVYYCARRVYYYDSTYNYWGKGTTVTVSS
VL: DIQMTQSPSSLSASVGDRVTITCKSSQSLLNSGNQKNYLTWYQQKPGKVPKLLIYWASTRESGVPSRFSGSGSGTDFTLTISSLQPEDVATYYCQNDYNYPLTFGGGTKVEIKR
Consider B1, for which the values for the Kd in assay [1] and in assay [2] were 229 nM and 11.7 nM, respectively.

B2: HAB-5101 (antibody, human IgG1, kappa, V domains shown)
VH: QVTLKESGPALVKPTQTLTLTCTFSGFSLSTSGMGVSWIRQPPGKALEWLAHIYWDDVSLYNPSLKSRLTISKDTSKNQVVLTMTNMDPVDTATYYCARRRIITVVDAMDYWGQGTTVTVSS
VL: DVVMTQTPLSLPVTPGEPASISCRSSQSIVHSNGNTYLEWYLQKPGQSPKLLIYKVSNRFSGVPDRFSGSGSGTDFTLKISRVEAEDVGVYYCSQGSRVPPTFGGGTKVEIKR
For B2, the results for the dissociation constant (Kd) in assay [1] and in assay [2] were 333 nM and 1.22 nM, respectively. Besides, in assay [3], the “IC50 (read off the curve)” value is approximately 800 nM.

B3: HAB-9001 (antibody, human IgG1, kappa, V domains shown)
VH: QVTLKESGPALVKPTQTLTLTCTFSGFSLSTFGMGVGWIRQPPGKALEWLAHIWWDDNKYYNPALKSRLTISKDTSKNQVVLTMTNMDPVDTATYYCARRGFHLGSRGDYFDHWGQGTTVTVSS
VL: DVVMTQTPLSLPVTPGEPASISCRSSQSIVHSNGNTYLEWYLQKPGQSPQLLIYKVSNRFSGVPDRFSGSGSGTDFTLKISRVEAEDVGVYYCFQGSRVPLTFGQGTKLEIKR
On to B3, for which the Kd turned out to be 27.9 nM in assay [1] and 0.213 nM in assay [2]. In addition, the “affinity relative to Aducanumab” value in assay [4] and in assay [5] was 2 orders of magnitude each time.
